Measurements reported in patent US20160031999A1 (CSL, published 2016).
Where a chain is given by its changes, count along the chain named.

Tests used:
[1] = biological target: T1, polypeptide of SEQ ID NO: 89 (mouse IL-11Rα 24-215 and human IL-11Rα 216-363, 8×HIS tag) (mouse and human (chimera), UniProt P70225 24-363); assay: Biacore, antibody captured; N/B: no or ablated binding
T1 chain: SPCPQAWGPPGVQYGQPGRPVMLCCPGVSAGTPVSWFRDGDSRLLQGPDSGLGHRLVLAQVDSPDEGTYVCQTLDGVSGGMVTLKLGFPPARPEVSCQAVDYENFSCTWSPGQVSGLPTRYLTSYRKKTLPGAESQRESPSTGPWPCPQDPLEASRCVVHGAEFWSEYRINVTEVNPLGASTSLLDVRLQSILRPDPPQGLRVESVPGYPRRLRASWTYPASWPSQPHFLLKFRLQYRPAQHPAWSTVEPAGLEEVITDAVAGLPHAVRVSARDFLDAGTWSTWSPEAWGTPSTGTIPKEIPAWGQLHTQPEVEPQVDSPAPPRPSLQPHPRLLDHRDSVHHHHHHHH
Procedure: (§1) Various soluble forms of IL-11R comprising regions of hIL-11R and mIL-11R were produced and comprise sequences as set forth in SEQ ID NOs: 3 and 86-90 and the binding of antibodies 8E2, 8D10 and 8E4 to those polypeptides was determined using Western blotting or Biacore analysis.
(§2) For Biacore analysis, anti-human was IgG immobilized on the sensor surface at ˜10,000-12,000 RU and each antibody was captured at between 0.2 μg/ml and 0.5 μg/ml every cycle for 120 seconds. IL-11 receptors were injected over captured antibodies at varying concentrations, ranging from 1 μM down to 2.5 nM, including injections of buffer blanks. Association was monitored for 3-5 minutes, dissociation was monitored for 3-10 minutes. Approximate affinities were determined by fitting binding curves of each interaction to a 1:1 Kinetic Model.

[2] = biological target: T2, polypeptide of SEQ ID NO: 90 (amino acids 24 to 367 of mouse IL-11Rα, serine at position 206, 8×HIS tag) (mouse, UniProt Q64385 24-367); assay: as above
T2 construct: also called soluble mIL-11Rα
T2 sequence: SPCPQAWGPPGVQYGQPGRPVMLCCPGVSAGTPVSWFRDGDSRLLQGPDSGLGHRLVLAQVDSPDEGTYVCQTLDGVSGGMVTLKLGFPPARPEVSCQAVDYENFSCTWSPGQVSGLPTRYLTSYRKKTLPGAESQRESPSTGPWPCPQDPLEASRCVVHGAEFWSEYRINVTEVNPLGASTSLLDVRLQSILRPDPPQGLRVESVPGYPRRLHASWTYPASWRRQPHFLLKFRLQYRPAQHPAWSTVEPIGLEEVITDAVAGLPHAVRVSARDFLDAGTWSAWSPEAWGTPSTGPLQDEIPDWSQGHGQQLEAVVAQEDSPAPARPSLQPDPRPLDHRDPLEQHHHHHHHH
Procedure: as §1, §2

[3] = biological target: T3, polypeptide of SEQ ID NO: 86 (human IL-11Rα 23-110 and mouse IL-11Rα 111-367, 8×HIS tag) (human and mouse (chimera), UniProt Q64385 23-367 (mouse entry)); assay: as above
T3 chain: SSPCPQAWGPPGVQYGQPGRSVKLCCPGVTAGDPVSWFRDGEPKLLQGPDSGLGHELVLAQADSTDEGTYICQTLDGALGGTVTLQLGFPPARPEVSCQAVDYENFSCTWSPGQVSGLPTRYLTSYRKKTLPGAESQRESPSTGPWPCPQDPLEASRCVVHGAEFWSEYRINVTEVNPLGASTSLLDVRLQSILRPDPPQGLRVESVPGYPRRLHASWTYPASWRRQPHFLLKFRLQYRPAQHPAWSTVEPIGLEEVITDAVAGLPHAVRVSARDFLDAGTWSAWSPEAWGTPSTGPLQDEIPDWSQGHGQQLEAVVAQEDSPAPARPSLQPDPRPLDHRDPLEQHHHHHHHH
Procedure: as §1, §2

[4] = biological target: T4, K66R mutant of soluble human IL-11Rα (SEQ ID NO: 96) (human, UniProt Q14626 23-318); assay: Biacore
T4 construct: also called K44R
T4 sequence: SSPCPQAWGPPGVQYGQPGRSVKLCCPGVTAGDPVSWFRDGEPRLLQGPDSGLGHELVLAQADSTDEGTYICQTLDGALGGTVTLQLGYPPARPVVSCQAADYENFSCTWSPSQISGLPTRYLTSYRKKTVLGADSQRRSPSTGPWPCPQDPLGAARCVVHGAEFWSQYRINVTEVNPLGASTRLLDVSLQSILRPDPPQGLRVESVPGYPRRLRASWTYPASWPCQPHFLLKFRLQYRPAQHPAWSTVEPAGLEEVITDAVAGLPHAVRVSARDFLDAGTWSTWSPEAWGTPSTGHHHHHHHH
Procedure: (§3) Anti human IgG Fc specific antibody was chemically immobilized on a CM5 chip to ˜9000 RU. Antibodies were captured at about 0.3-1 μg/ml for 120 seconds on 2 spots in each flow cell. Adjacent spots consisting of only anti human IgG were used as a reference. IL-11 receptors were injected over the captured antibodies and reference spots at 40, 10, 5 and 2.5 nM in duplicate. Blank injections of buffer only were also performed in duplicate. Injection was performed for 3 minutes and dissociation monitored for a further 5 minutes.
The K66R mutation led to a decrease in KD of just over twofold when compared to WT D1/2 (SEQ ID NO: 85) for antibodies 8E2 and 8D10, indicating some involvement of this residue in antibody binding.

[5] = biological target: T5, V117E mutant of soluble human IL-11Rα (SEQ ID NO: 95) (human, UniProt Q14626 23-318); assay: Biacore, antibody captured; * indicates undetectable binding
T5 construct: also called V95E
T5 sequence: T4 sequence with R44K, V95E
Procedure: Various point mutants of soluble forms of IL-11R were produced in which amino acids from mIL-11 were introduced into a soluble form of hIL-11 (SEQ ID NO: 85) (see Table 5 for positions of mutations relative to SEQ ID NO: 1 and for reference to the SEQ ID NO: of each polypeptide) and the binding of antibodies to those polypeptides or to polypeptides of SEQ ID NO: 3 or SEQ ID NO: 85 was determined using Biacore analysis or FACS.
as §3

- binding result [1]: no binding
- binding result [2]: no binding
- binding result [3]: no binding
- fold change in KD compared to WT D1/2 (SEQ ID NO: 85) [4]: > 2 fold
- binding result [5]: no binding
B1: antibody 8D10 (antibody, human IgG4 S228P, kappa, V domains shown)
VH: EVQLLESGGGLVQPGGSLRLSCAASGFTFSRYMMGWVRQAPGKGLEWVSSIVPSGGITIYADSVKGRFTISRDNSKNTLYLQMNSLRAEDTAVYYCARDHMGIVATDWGQGTLVTVSS
VL: DIQMTQSPSSLSASVGDRVTITCQASQDITNYLNWYLHKPGKAPKLLIYDASNLQTGVPSRFSGSGSGTDFTFTITSLQPEDFGTYYCQQYDTLHPSFGPGTTVDIKR
